In patent publication US7166568B1, “Compositions and methods to inhibit formation of the C5b-9 complex of complement” (Oklahoma Medical Research Foundation, priority 1998, dated 2007):
Positions count from the first letter of the chain named. Non-standard residues stand in square brackets, D forms with d. No end group written: not given here. allyl‑C = allyl-modified terminal Cys; allyl‑K = allyl-modified terminal Lys

Experiments:
[1] = biological target: T1, human erythrocyte membrane glycoprotein CD59 (purified) (human, UniProt P13987 26-102, biotinylated with NHS-LC-biotin where used as biotin-CD59); experiment: microplate assay: BSA-peptide coated wells, biotin-CD59 detected with Vectastain, OD 405 nm; corrected with a 20-fold excess of unlabeled CD59
T1 construct: Purified from human erythrocyte membranes; Used as biotin-CD59 in the microplate assay and put back into chicken erythrocytes (chE) for the hemolytic assays; it may hold a C-terminal GPI signal that the purified protein lacks; also called hu CD59; biotin-CD59
T1 sequence: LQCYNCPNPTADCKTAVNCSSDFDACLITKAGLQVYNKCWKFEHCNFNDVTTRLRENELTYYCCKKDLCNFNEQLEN
Method: Briefly, the BSA-peptide conjugate was adsorbed to 96 well polyvinyl microplates by overnight coating at 5 µg/ml in 0.1 M sodium bicarbonate, pH 8.5. After blocking with 1% (w/v) BSA, wells were washed and incubated (4 hrs., 37° C.) with between 0.5 and 1 µg/ml biotin-CD59. After washing, the bound biotin-CD59 was detected with Vectastain (Vector Labs, Burlingame, Calif.), developed by addition of p-nitrophenyl phosphate (2 mg/ml) and optical density recorded at 405 nm (VMaxMicroplate Reader, Molecular Devices, Inc.). In all experiments, correction was made for background adsorption of biotin-CD59 to BSA-coated wells (no peptide) and for nonspecific binding of biotin-CD59 to peptide, determined in the presence of a 20-fold excess of unlabeled CD59. As a positive control for specific binding, comparison was made in each experiment to wells coated with 2 µg/ml hu C9.

[2] = biological target: T2, hu C5b-9 (hu C5b67 with hu C8 and hu C9) (Homo sapiens, UniProt P02748+P07357); experiment: Assay of MAC inhibitory function of recombinant CD59 on transfected SV-T2 cells, hu C8 and C9; format: cell-based; conditions: for species-selective complement inhibitory function compared with full-length hu or rb CD59: SV-T2 clones, hu versus rb C8 and C9 used to assemble the C5b-9 complex
T2 construct: human complement proteins (C5b7, C8 and C9) and rabbit complement proteins C8 and C9 were purified; from tissue; host or cells: human serum/plasma (C8 and C9 purified; C5b67 deposited from C8-depleted human serum)
Method: (§1) Expression of CD59 constructs in SV-T2 cells—SV-T2 cells were transfected with hu, rb, or chimeric TAG-CD59 pcDNA3 by electroporation as previously described (Zhou, Q., Zhao, J., Hüsler, T., and Sims, P. J. (1996) Mol. Immunol. 33, 1127–1134). After 48 hr, stable transfectants were selected with DMEM complete medium containing 1 mg/ml geneticin for 10 days. If episomal replication in the transfected cells was desired, 8×10^6 SV-T2 cells were transfected with 120 μg plasmid DNA by electroporation using GENE PULSE™ (Bio-rad) at 360 V and 500 μF (Zhou, Q., Zhao, J., Hüsler, T., and Sims, P. J. (1996) Mol. Immunol. 33, 1127–1134). Geneticin-selected cells were stained with mAb 9E10 against TAG epitope followed by FITC-conjugated goat antibody against mouse IgG, and sorted by flow cytometry (FACStar Plus; Becton Dickinson). Individual clones were then obtained by limiting dilution in DMEM containing 0.5 mg/ml geneticin. Comparison was made to clonal cell lines derived by transfection with pcDNA3, lacking insert (vector-only controls).
Measurement of cell surface TAG-CD59—The cell surface expression of each TAG-CD59 construct in transfected SV-T2 cells was quantified by the binding at saturation of mAb 9E10 (against TAG epitope) as previously described by Zhou, Q., Zhao, J., Hüsler, T., and Sims, P. J. (1996) Mol. Immunol. 33, 1127–1134. Following growth to near confluence, cells were detached and incubated for 30 min at 23° C. with mAb 9E10 (100 μg/ml) in HBSS containing 1% BSA. After washing with HBSS containing 1% BSA, the cells were incubated (20 min at 23° C.) with FITC conjugated goat anti-mouse IgG at a final concentration of 10 μg/ml. The fluorescence was determined by flow cytometry (FACScan, Becton Dickinson) as described previously by Zhou, Q., Zhao, J., Hüsler, T., and Sims, P. J. (1996) Mol. Immunol. 33, 1127–1134.
Assay of MAC inhibitory function—The complement-inhibitory activity of recombinant CD59 expressed on the transfected SV-T2 cells was evaluated by minor modification of methods previously described (Zhou, Q., Zhao, J., Hüsler, T., and Sims, P. J. (1996) Mol. Immunol. 33, 1127–1134, and Zhao, J., Rollins, S. A., Maher, S. E., Bothwell, A. L., and Sims, P. J. (1991) J. Biol. Chem. 266, 13418–13422). For cell clones expressing each chimeric CD59 construct, huC5b67 was deposited on the plasma membrane and susceptibility to the lytic activity of either hu C8 and C9 or rb C8 and C9 was measured and compared to identically-treated clones expressing wild-type hu or rb CD59. […] MAC-mediated cell lysis was determined from the measured release of BCECF dye from the cytoplasm, with correction for non-specific dye leak from matched controls omitting C8 and C9, as previously described by Zhou, Q., Zhao, J., Hüsler, T., and Sims, P. J. (1996) Mol. Immunol. […]

[3] = biological target: T3, C5b-9 assembled from rb C8 and C9 (Oryctolagus cuniculus, UniProt P48747+P98136); experiment: Assay of MAC inhibitory function of recombinant CD59 on transfected SV-T2 cells, rb C8 and C9; format: cell-based, rabbit; conditions: CD59 construct expressed on SV-T2 cells; hu C5b67, 4 μM rb C8 and 5 μM rb C9; BCECF dye release
T3 construct: rabbit complement proteins C8 and C9 were purified; from tissue; host or cells: rabbit serum/plasma (C8, C9); C8-depleted human serum (C5b67)
Method: as §1, with “Comparison was made to clonal cell lines derived by transfection with pcDNA3, lacking insert (vector-only controls).” left out
Measurement of cell surface TAG-CD59—The cell surface expression of each TAG-CD59 construct in transfected SV-T2 cells was quantified by the binding at saturation of mAb 9E10 (against TAG epitope) as previously described by Zhou, Q., Zhao, J., Hüsler, T., and Sims, P. J. (1996) Mol. Immunol. […] The fluorescence was determined by flow cytometry (FACScan, Becton Dickinson) as described previously by Zhou, Q., Zhao, J., Hüsler, T., and Sims, P. J. (1996) Mol. Immunol. […]

B1: BSA-conjugated hu C9 peptide 359-384 (peptide)
peptide: [allyl‑K]CLGYHLDVSLAFSEISVGAEFNKDD[allyl‑C]
modifications: also: coupled to BSA
notes: Synthetic peptide, custom ordered, adsorbed to microplates as a BSA conjugate; also called BSA-peptide conjugate
B1: binds [1].

B2: Ch6R: rabbit 42–58 substituted in hu CD59 (protein)
chain: EQKLISEEDLNLQCYNCPNPTADCKTAVNCSSDFDACLITKAGLQVYNKCWKYEDCNFEFISNRLEENSLTYYCCKKDLCNFNEQLEN
With B2 the “species-selective complement inhibitory function compared with full-length hu or rb CD59” value [2] was “functionally indistinguishable from rb CD59”.

B3: rb CD59: rabbit CD59 cloned by the applicant (GenBank AF040387), expressed recombinantly with TAG on SV-T2 cells (protein)
chain: EQKLISEEDLNSLMCYHCLLPSPNCSTVTNCTPNHDACLTAVSGPRVYRQCWRYEDCNFEFISNRLEENSLKYNCCRKDLCNGPEDDG
For B3, the “MAC-inhibitory function towards C5b-9 assembled with rb C8 and C9 (protection from lysis)” value [3] was “conferred a selective resistance to lysis by C5b-9 assembled from rb C8 and C9” and the “MAC-inhibitory function towards hu C5b-9 (protection from lysis)” value ([2]; CD59 construct expressed on SV-T2 cells, hu C5b67, 2 μM hu C8 and 5 μM hu C9, BCECF dye release) was “virtually no inhibition of the lytic action of MAC was observed”.

B4: Ch6: hu CD59 residues 42–58 substituted into rb CD59 (protein)
chain: B3 chain with Y54F, D56H, E60N, F61D, I62V, S63T, N64T, E67R, S70E
For B4, the “species-selective complement inhibitory function compared with full-length hu or rb CD59” value [2] was “functionally indistinguishable from native hu CD59”.
